Data taken from PMC6615864, “Genetic interactions of G-quadruplexes in humans”.

Experiments:
DDX42 [1] = molecular target: T1, DDX42 (Homo sapiens, UniProt Q86XP3 1-938); experiment: ELISA; 100 mM KCl; apparent Kd, above the 200 nM top concentration; ELISA: 50 mM K2HPO4 pH 7.4, 100 mM KCl (or 100 mM LiCl), 3% BSA block, 0.1% Tween-20 washes; blocking at room temperature, DDX42 1 h; 50 nM biotin-oligo coating; oligos annealed in 10 mM Tris-HCl pH 7.4, 100 mM KCl; settings: protein: commercial; tags: N-terminal GST; label: 5' biotin; parallel G4 (CD verified)
T1 sequence: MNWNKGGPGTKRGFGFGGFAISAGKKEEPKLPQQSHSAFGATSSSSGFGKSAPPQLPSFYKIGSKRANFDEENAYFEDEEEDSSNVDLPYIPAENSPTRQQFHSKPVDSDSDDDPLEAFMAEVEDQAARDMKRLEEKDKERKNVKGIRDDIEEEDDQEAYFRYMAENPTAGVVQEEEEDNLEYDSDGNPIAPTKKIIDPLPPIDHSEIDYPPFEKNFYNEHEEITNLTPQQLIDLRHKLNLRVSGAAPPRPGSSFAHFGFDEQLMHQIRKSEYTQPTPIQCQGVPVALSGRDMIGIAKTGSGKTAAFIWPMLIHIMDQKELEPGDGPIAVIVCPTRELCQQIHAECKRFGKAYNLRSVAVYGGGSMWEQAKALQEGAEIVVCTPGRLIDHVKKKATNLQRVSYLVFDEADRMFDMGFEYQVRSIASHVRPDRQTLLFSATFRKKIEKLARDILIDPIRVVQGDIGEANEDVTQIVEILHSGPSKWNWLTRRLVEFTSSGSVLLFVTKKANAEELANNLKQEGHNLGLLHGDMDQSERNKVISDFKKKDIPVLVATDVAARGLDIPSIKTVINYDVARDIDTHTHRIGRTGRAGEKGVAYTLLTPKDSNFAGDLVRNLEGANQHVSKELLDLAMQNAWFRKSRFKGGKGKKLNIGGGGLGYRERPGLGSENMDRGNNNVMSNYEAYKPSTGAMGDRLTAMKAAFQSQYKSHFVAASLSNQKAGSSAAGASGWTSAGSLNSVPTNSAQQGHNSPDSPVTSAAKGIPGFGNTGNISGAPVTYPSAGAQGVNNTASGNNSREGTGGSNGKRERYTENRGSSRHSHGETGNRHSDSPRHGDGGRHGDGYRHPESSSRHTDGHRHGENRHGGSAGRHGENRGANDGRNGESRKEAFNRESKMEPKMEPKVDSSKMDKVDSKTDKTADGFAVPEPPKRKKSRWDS

DDX42 [2] = molecular target: T1, DDX42; experiment: ELISA; not detectable up to 200 nM DDX42; ELISA: 50 mM K2HPO4 pH 7.4, 100 mM KCl (or 100 mM LiCl), 3% BSA block, 0.1% Tween-20 washes; blocking at room temperature, DDX42 1 h; 50 nM biotin-oligo coating; oligos annealed in 10 mM Tris-HCl pH 7.4, 100 mM KCl; settings: protein: commercial, tags: N-terminal GST, label: 5' biotin
DDX42 [3] = molecular target: T1, DDX42; experiment: ELISA; 100 mM KCl; apparent Kd; ELISA: 50 mM K2HPO4 pH 7.4, 100 mM KCl (or 100 mM LiCl), 3% BSA block, 0.1% Tween-20 washes; blocking at room temperature, DDX42 1 h; 50 nM biotin-oligo coating; oligos annealed in 10 mM Tris-HCl pH 7.4, 100 mM KCl; settings: protein: commercial; tags: N-terminal GST; label: 5' biotin; parallel G4 (CD verified)

B1: Myc G4 (dG4) (structured_DNA)
DNA: TGAGGGTGGGTAGGGTGGGTAA
For B1, the Kd (DDX42 [1]) was 233 ± 23.5 nM.

B2: NRAS mut (rG4 mut) (ssRNA)
RNA: UGUAGAAAGAGCAGAUCUAGAUG
B2: no binding (DDX42 [2]; no G4).

B3: NRAS G4 (rG4) (structured_RNA)
RNA: UGUGGGAGGGGCGGGUCUGGGUGC
B3 gave a Kd (DDX42 [3]) of 71.1 ± 3.5 nM.

B4: Stem loop (RNA hairpin) (structured_RNA)
RNA: ACAGGGCUCCGCGAUGGCGGAGCCCAA
B4: no binding (DDX42 [2]; hairpin).
